The values below are quoted from earlier work in article PMC5428663, “Identification of small molecule inhibitors of Interleukin-18” (Scientific Reports, 2017).

In the data set the target is hIL-18. Conditions: read-out: affinity for hIL-18.

B1: hIL-18BP (protein, UniProt O95998 31-194, looked up)
Interleukin-18-binding protein: TPVSQTTTAATASVRSTKDPCPSQPPVFPAAKQCPALEVTWPEVEVPLNGTLSLSCVACSRFPNFSILYWLGNGSFIEHLPGRLWEGSTSRERGSTGTQLCKALVLEQLTPALHSTNFSCVLVDPEQVVQRHVVLAQLWAGLRATLPPTQEALPSSHSSPQQQG
Consider B1, for which the Kd was 400 pM.
